assay: yeast display, Sf9 membrane polyspecificity reagent, FACS + sequencing; frameworks hold sequencing errors
In short: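 Sorting gates, low and high (top ~1%), were placed on anti-HA fluorescence to track expression and on streptavidin fluorescence to track reagent binding. A clone's polyreactivity label is taken from the gate it came out of. The reagent was 10% biotinylated, detergent-solubilized Sf9 membrane, applied for 1 hour at 4 °C to galactose-induced yeast display cells.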

Sequence	polyreactivity (PSR sort gate)
QVQRVESGGGLVQAGGSLRLSCADSGTYGSYAMGWYRQAPGTEREFVAAISASGGSTYYADSVKGRFTISRDNAKNTVYLQMNSLKPEDTAVYYCNKSPRRNRQYDYWGQGSQVTVSS	high polyreactivity
QVQRVESGGGLVQAGGSLRLSCSASGFIFQLSAMGWYRQAPGTERELVAAITWRGGSTYYADSVKGRFTISRDNAKNTVYLQMYSLKPEDTAVYYCAASASWRGQRVPYGYWGQGTQVTVSS	high polyreactivity
QVQRVESGGGLVQAGGSLRLSFAASGSTDGRYARGWYSQAPVQDTELVAAITRNGGRTYYADSVKGCFTISRDNAKNTVYLQMNSLKPEHTADEYCAASGRSQYGDYDDWGQGSQVTVSS	high polyreactivity
QVQRVESGGGLVQAGGSVRLSCPASGSIFWSYAMGWYRQAPGKERELVAVINWSGGSTYYADSVKGRFTISRDNAKNTVYLQMNSLNPEDTAVYYCNKDLGPTKRPFTFDYSGQGTQVTVSS	low polyreactivity
QVQRVESGGRLVQAGGSLRLSCAASGRTFWAYAMGWYRQAPGKERELVAAITTSGGSTNYADSVKGRFTISRDNAKNTVYLQMNSLKPEDTAVDYCNADPTYHVVNGVGYWGQGTQVTVSS	low polyreactivity
QVQRVESRGGLVQAGGSLRLTCAASGRTFWRYVMGWYRQAPGKERELVATISSGGSTNYAYSVKGRFTISRDNAKNTVYLQMNSLKPEDTAVYYSAAYIYDGVWVYPYYPYDYWGQGTQVTVSS	low polyreactivity
QVQSEESGGGLVQAGGSLRLSCAASGLIFDGYSMGWNRQAPGKERELVAAITRSGASTSYADSVKGRFTISRDNAKNTVYLQMNSLKPDDTAVYYCAAKVHTFYYHYYSWGQGTQVTVSS	high polyreactivity
QVQVVESGGGLVKAGGSLRLSCAASGGTFLINAMGWYRQAPGKERELVATITSGGTTYYADSVKGRFTISRDNAKNTVYLQMNSLKPEDTAVYYCATRGKGRYGYDSWGQGTQVTVSS	low polyreactivity
QVQVVESGGGLVKAGGSLRLSCAASGIIFVYYAMGWSRQAPGKERELVAAITSDGGRTYYADSVKGRFTISRDNAKNTVYLQMNSLKPEDTAVYYWAARTLYRGIKGYNYWGQGTQVTVSS	high polyreactivity
QVQVVESGGGLVQAGGSLGLSCAASGRTFGSNAMGWYRQAPGKERELVAAISSTVSTNYADSVKGRFTISSDNANNTVYLQMNSLKPEDTAVYFCNVTRHYSYVSEYDYWGQGTQVTVSS	low polyreactivity
QVQVVESGGGLVQAGGSLRLRCAASGSIIKYYAMGWYREAPGKERELVADISWRGGRTYADSVKGRFTISRDNAKNTVYLQMNCLIPEDTAVYYCAKPSKARGGYDYWGQGTQVTVSS	high polyreactivity
QVQVVESGGGLVQAGGSLRLSCAASGFTFDYYNMGWYRQAPGKERELVAAITSGASTNYADSVKGRFTISRDNAKNTVYLQMNSLKPEDTAVYYCAAVLAGGVYWVVHYDYWGQGTQVSVSS	low polyreactivity
QVQVVESGGGLVQAGGSLRLSCAASGFTFSFNAMGSYRQAPWKERELVAAIDRGVSTYYADSVKGRFTISRDNAKNTVYLQMKSLKPEDTAVSYCAVEYWEPYDMDYWGQGTQVTVSS	high polyreactivity
QVQVVESGGGLVQAGGSLRLSCAASGGTFSPYDMGWYRQAPGKERELVASITRSGGSTYYADSVKGRFTISRGNSKNTVYLQMNSLKPEDTAVYYCAAQGYWTYWPYLLRLYDYWGQGTQVTVSS	low polyreactivity
QVQVVESGGGLVQAGGSLRLSCAASGITFWGYAMGWYRQAPGKERELVAAITRTGSTYYADSVKGRFTISRDNAKNTVYLQMNSLKPEDTALYYCAAYTPNASTYRRKSSKKVYYWGQGTQVTVSS	high polyreactivity
QVQVVESGGGLVQAGGSLRLSCAASGRTFFRNAMGWYRQARGKERELVAAISKRGGSTRYADSVKGRFTISRDQAQNPDYLQMNSLKPEDTAVYYCAAASRLEYSHATLYYWGQGTQVTVSS	high polyreactivity
QVQVVESGGGLVQAGGSLRLSCAASGRTFGGYDMGWYRQAPGKERELVAAISWSGGNTYYADSVKGRFTISRDNAKNTVYLQMNSLKPEDTAVYYCAAGHYVYWYRYQLGRYNYWGQGTQVTVSS	high polyreactivity
QVQVVESGGGLVQAGGSLRLSCAASGRTFYGNAMGWYRQAPGKERELVASITSRGDNTYYADSVKGRFTISRDNAKNTVYFQMNSLKPEDTAVYYCAAGTVYYTYLWMGYWGQGTQVTVSS	low polyreactivity
QVQVVESGGGLVQAGGSLRLSCAASGRTSGNYAMGWYRQAPGKERELVAAIRYSGSSTFYADSVKGRFTISRDNAKHTVYLQMNSLKPEDTAVYYCARDIRRKGFRYDYWGQGTQVTVSS	high polyreactivity
QVQVVESGGGLVQAGGSLRLSCAASGSIFGANTMGWYRPAPGKERELVAAISSGGNTYYADSVKGRFTISRDNAKNTVYLQMNSLKPEDTAVYYCNAQTRYLYQYGYLGGTGYNYWGQGTQVTVSS	low polyreactivity
QVQVVESGGGLVQAGGSLRLSCAASGSIFSSYAMGWYRQAPGKERELVAAITGSGGSTDYADSVKGRFTISRDNAKNTVYLQMNSLKPEDTAVYYCAARRFWPGNSYYYRYYYWGQGTQVTVSS	low polyreactivity

Sequence	polyreactivity (PSR sort gate)
QVQVVESGGGLVQAGGSLRLSCAASGSIFVGYAMGWYRQAPGKEREFVAGITARGGSTYYADSVKGRFTISCDNAKNTVYIPMNSQKPEDSAVYYCAADDGSENDYWGQGTQVTVSS	low polyreactivity
QVQVVESGGGLVQAGGSLRLSCAASGSTFPGNAMGWYRQAPGKERDLVAAITSTGTTYYADSVKGRFTISRDNAKNTVYLQMNSLKPEDTAVYYWNADPSPDPSTFDYWGQGTLVTVSS	low polyreactivity
QVQVVESGGGLVQAGGSLRLSCAASGSTFRYYAMGWYRQAAGKERELVASITVSVGRTYYADSVKGRFTISRDYAKNTVYLQMNILKPEDTAVYYCAAPRGRLVRPPKYYYWGQGTQLTVSS	high polyreactivity
QVQVVESGGGLVQAGGSLRLSCAASGSTFTIYAMGWYRQAPGKERELVALITWSGGSTYYADSVKGRFTISRDNAKNTVYLQMNSLKPEDTAVYYCAADYYRPVPGGYYWGQGTQVTVSS	high polyreactivity
QVQVVESGGGLVQAGGSLRLSCAASGSTFYSNAMGWYSQAAGQERELVAAITWSDGSTYYADSVMGRFTISRDNAKHTVYVQMNSHKPEDTALYYCSATQAEVVWTPVYVEYDYWGQGTQVTVSS	high polyreactivity
QVQVVESGGGLVQAGGSLRLSCAPSGRTFYGNVMGWYRQAPGKERELVAAISSRGSSTRYADSVKGRFTISRDNAKNTVYLQMNRLKPEDTAVYYCAARNEYWGQGTQVTVSS	high polyreactivity
QVQVVESGGGLVQAGGSLRLTCAASGRTFINYAIGRYRQPAAKERELVAAITPGGRTNYADSVKGRFTNSRDNAKYTVYLQMNSVTPEDTAVYYCAADRYYWGRYTLNYWGQGTQVTVSS	low polyreactivity
QVQVVESWGGLVQEAGSLRLSCAASGRTFAHYNMGSYRQAPGKERELVARIDWSCGNTYYADSVKGRFTISRDNAKITVFLQMNRLKPQDTAVYYCAAVPAFYNAWGEDYEYWGQGTHVTVSS	low polyreactivity
QVRLVESGGGLVQAGCSLRLSCAASGSTFWSYAMGWYRQAPGKERELVAAISWSGDSTYYADSVKGRFTISRDNAKNTVYLQMNSLKPEDSAVYYCAADYTGSFYTYDYWGQGTQVTVSS	low polyreactivity
QVRLVESGGGLVQAGGSLRLSCAASARILPYYPMGWYRQAPGKERELVAAISWSGGRTYYADSVKGRFTISRDNAKNTVYLQMNSLKPEDTAVYYWATRRVTHVPGSSRYDYWGQGTQVTVSS	low polyreactivity
QVRLVESGGGLVQAGGSLRLSCAASGRIFQYYAMGWYRQAPGKERELVASITSGGGSTYYADSVKGRFTISRDNAKNTVYLQMNSLKPEDTAVYYCNARWYGLSTRYDYWGQGTQVTVSS	low polyreactivity
QVRLVESGGGLVQAGGSLRLSCAASGRTFTHNVMGWYRQAPGKERELVAGISSTGGSTYYADSVKVRFTISRDNAKNTVYLQMNSRKPEDPAVYYCNADYASYYRYSRPLEMNYWGQGTQVTVSS	low polyreactivity
QVRLVESGGGLVQAGGSLRLSCAASGSTFYPYDMGWYRQAPGKERELVATISSGVSTNYADSVKGRFTISRDNAKNTVYLQMNSLKPEDTAVYYCAVDYFIGDDDYWGQGTQVTVSS	low polyreactivity
QVTLVESGGGLVQAGGSLRLSCAASGSIRGYALGWSRQPPGKDRALVAAMSWRGGSTYYADSVKGRFTISRDNAKNTVYLQMNSLKPEETAVYYCAVEYVYWLSWYFQYDYWGQGTQVTVSS	low polyreactivity
QYQLVESGGGLVHEGGSLSLRCAASGSNLYYYAMGWYRKAPGKERDLDAAITYSGGNTYYADSVKGRFTISRDNAKNNVYLQMNSLKPEDTAVYYCAADDWSSDYIRYEYWGQGTQVTVSS	low polyreactivity
RVHLVESGGGLVQAGGSLRLSCAASGRIFDNYVMGWYRQAPGKESELVAAISSGGGTYYADSVKGRFTISRDNAKNTVYLQMKSLKPEDTAVYFCAKRRVFDRSFGRYDYWGQGTQVTVSS	low polyreactivity
RVQLVESGGGLVQAGGSLRLSCAASGRIFSYKAMGWYRQAPGKERELVAAITFSGGGTYYADSVKGRFTISRDNAKNPVYLQMNSLKPEDTAVYYCNKVSYGYSSYGYWGQGTQVTVSS	low polyreactivity
RVQLVESGGGLVQAGGSLRLSCAASGRTFVNYAMGWYRQAPGKEREFVAAITNGGRTNYADSVKGRFTISRDNAKNTVYLQMNSLQPEETEVYYCAARYRFGGIRRYNYWGQGTQVTVSS	high polyreactivity
RVQLVESGGGLVQAGGSLRLSCAASGSTFENYAMGWYRQAPGKERELVAAISSGGSTYYADSVKGRFTISRDNAKNTVYLQMNSLKPEDTAVYYCAAELEYWLYGYGYYYWGQGTQVTVSS	high polyreactivity
RYADSVKGRFTISRDNAKNTDYLQMNSLKPEDTAVYYCAAKGPEPPSLDESDYWGQVTQVTVSS	low polyreactivity
